Square brackets hold non-standard residues; d marks the D form. Ends that are not written are not given here. * marks the point of attachment. 6FAM = O=C1OC2(c3ccc(O)cc3Oc3cc(O)ccc32)c2cc(C(=O)*)ccc21
Experiments:
[1] = tested on: inducible N2aTau^4RDΔK280 cells; experiment: Penetration of FAM-labeled peptides into cells (confocal microscopy); assay type: cell-based; parameters: key to Cell penetration: membrane, 2 hours incubation / Cell penetration: membrane, 4 days incubation / Cell penetration: cytosol, 4 days incubation / Cell penetration: cytosol, 2 hours incubation / Cell penetration: nuclei, 4 days incubation / Cell penetration: nuclei, 2 hours incubation: +: Cell compartments where fluorescence of the label was detected are summarized here
Description: The peptides were obtained with a 6-Carboxyfluorescein (FAM) label, linked via a C-terminal lysine, to assay their ability to enter N2a cells expressing a variant of tau protein (construct tau^4RDΔK280, derived from the 4-repeat domain) in a regulatable fashion. The cells were incubated in the presence of the peptides for two hours (short term uptake) and four days (long term uptake and stability) at concentrations of 60 μM. After incubation the cells were fixed on glass cover slips and monitored by a confocal microscope (Fluoview 1000, Olympus). The localizations of the D-peptides were detected by their FAM-label (excitation: 488 nm, emission: 520 nm). In addition, cell nuclei were stained with TOPRO3 dye (excitation: 633 nm, emission: 660–670 nm). Representative pictures were taken with magnifications of 10-times for overview and 60- and 120-times for more detailed analysis.

[2] = target: T1, tau monomers (tau-441, 2N4R) (Homo sapiens, UniProt P10636); experiment: ELISA binding of FAM-labeled peptides to tau monomers; settings: 20 μg/mL FAM-labeled peptide; for Binding to tau monomers (ELISA, in words): 5 μg/mL tau monomers coated, HRP anti-FITC detection; for ELISA signal, ranking among peptides: tau monomers and fibrils
T1 construct: Full lengths tau protein expression and purification; made in house
Description: (§1) Tau protein [tau-441 (2N4R) MW 45.9 kDa], purified as described in the main text, was used to prepare tau fibrils, the preparation of the fibrils was performed according to Barghorn et al. with slight modifications: 30 µM tau protein were incubated for 48 hours with 20 µM heparin MW ≈ 5000 (Fisher scientific, Schwerte, Germany) in phosphate-buffered saline (PBS) pH 7.4 at room temperature.
(§2) Polystyrene 96-well microtiter plates (Greiner Bio-One GmbH, Frickenhausen, Germany) were coated with 100 µL/well of tau monomers or fibrils in concentration of 5 µg/mL respectively, followed by incubation for 1 hour at room temperature. As control, PBS pH 7.4 containing 1 % BSA (IgG free) (Roth, Karlsruhe, Germany) was used instead of tau protein solution. After washing three times with PBS-T (phosphate-buffered saline (pH 7.4) with (0.1 %) Tween 20), and blocking for 1 h at room temperature with 1 % BSA (IgG free) (Roth, Karlsruhe, Germany) in PBS, the plate was washed three times with PBS-T. Then the peptides APT-Lys(FAM)-NH2, KNT-Lys(FAM)-NH2, LPS-Lys(FAM)-NH2, TD28-Lys(FAM)-NH2, TD28rev-Lys(FAM)-NH2 as well as d-TLKIVW-Lys(FAM)-NH2 (JPT Peptide Technologies, Berlin, Germany) were dissolved in PBS-T and added at 100 µL/well in concentration of 20 µg/mL, respectively, the plate was allowed to react for 1 h at room temperature in the dark. Subsequently, the plate was washed 3 times with PBS-T, horseradish peroxidase-conjugated sheep anti-FITC secondary antibodies (Bio-Rad, Muenchen, Germany) were diluted 1:5000 in PBS-T; the antibodies were incubated on the plate 1 h at room temperature. After incubation, the plate was washed 3 times with PBS-T. Subsequently, the substrate solution was prepared as follows: 10 mg of 3,3',5,5'-tetramethylbenzidine (TMB) (Roth, Karlsruhe, Germany) was dissolved in 1 ml dimethylsulfoxide (DMSO), 62 µL from TMB solution were mixed with 9 mL distilled water, 1 mL 1 M sodium acetate buffer (pH 6) and 10 µL 3 % hydrogen peroxide. 100 µL of the prepared substrate solution were transferred to the according wells. Finally, the reaction was stopped with 100 µL/well of 20 % H2SO4, and the plate was read at 450 nm (Multiskan GO, Thermo scientific, Germany).

[3] = target: T2, tau fibrils (tau-441, 2N4R, heparin induced) (Homo sapiens, UniProt P10636); experiment: ELISA binding of FAM-labeled peptides to tau fibrils; settings: 5 μg/mL tau fibrils coated, 20 μg/mL FAM-labeled peptide, HRP anti-FITC detection
T2 construct: Full lengths tau protein expression and purification; made in house
Description: as §1, §2

tau (Homo sapiens) = settings: cited from earlier work
[4] = target: tau^3RD (three repeat domain construct of tau protein, K19) (human)
[5] = 60 μM FAM labeled peptide, N2aTau^4RDΔK280 cells, fixed cells, confocal microscope, FAM fluorescence
[6] = 60 μM FAM labeled peptide, N2aTau^4RDΔK280 cells, fixed cells, confocal microscope, FAM fluorescence, nuclei stained with TOPRO3

T2 sequence (P10636 1-441 isoform P10636-8): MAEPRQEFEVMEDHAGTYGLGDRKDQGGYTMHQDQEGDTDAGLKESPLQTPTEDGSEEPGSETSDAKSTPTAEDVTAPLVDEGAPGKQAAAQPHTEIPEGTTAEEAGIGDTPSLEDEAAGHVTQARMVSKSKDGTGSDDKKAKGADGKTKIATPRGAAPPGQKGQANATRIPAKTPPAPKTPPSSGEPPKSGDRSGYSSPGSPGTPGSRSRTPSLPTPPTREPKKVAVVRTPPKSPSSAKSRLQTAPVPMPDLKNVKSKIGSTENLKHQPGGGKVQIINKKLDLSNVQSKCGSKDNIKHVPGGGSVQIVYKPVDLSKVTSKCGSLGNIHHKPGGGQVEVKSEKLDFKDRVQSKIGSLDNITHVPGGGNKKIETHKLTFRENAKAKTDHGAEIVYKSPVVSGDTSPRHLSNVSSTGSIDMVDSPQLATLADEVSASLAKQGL
T1 sequence (P10636 1-441 isoform P10636-8): as above
Sequence of tau^3RD (three repeat domain construct of tau protein, K19) (human) (P10636 other isoform, or with tags, fused parts or gaps): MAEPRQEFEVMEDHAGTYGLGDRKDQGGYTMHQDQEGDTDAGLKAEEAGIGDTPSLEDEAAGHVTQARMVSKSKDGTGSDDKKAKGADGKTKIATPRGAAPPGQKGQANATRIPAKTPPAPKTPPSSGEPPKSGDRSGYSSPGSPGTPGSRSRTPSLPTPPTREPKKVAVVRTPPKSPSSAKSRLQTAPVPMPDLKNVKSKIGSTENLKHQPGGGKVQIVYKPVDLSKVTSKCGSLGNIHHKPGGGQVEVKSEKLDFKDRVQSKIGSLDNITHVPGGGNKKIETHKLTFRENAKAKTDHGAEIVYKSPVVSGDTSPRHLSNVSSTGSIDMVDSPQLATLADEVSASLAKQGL

Molecule	Cell penetration: cytosol, 4 days incubation [1, 5]	Cell penetration: membrane, 2 hours incubation [1, 5]	Cell penetration: membrane, 4 days incubation [1, 5]	Cell penetration, overall judgement (in words) ([1]; 60 μM FAM-labeled peptide, N2a cells, up to 4 days)	Binding to tau monomers (ELISA, in words) [2]	Binding to tau fibrils (ELISA, in words) [3]	Kd (tau (Homo sapiens))	Cell penetration: cytosol, 2 hours incubation [1, 5]	ELISA signal, ranking among peptides [2]	Cell penetration: nuclei, 4 days incubation [1, 6]	Cell penetration: nuclei, 2 hours incubation [1, 6]	half maximal effect concentration, inhibition of tau^3RD (K19) fibril formation (K19 with K19), ThS fluorescence in vitro [4]
APT-Lys(FAM)-NH2: APT with 6-Carboxyfluorescein (FAM) label linked via a C-terminal lysine ([dA][dP][dT][dL][dL][dR][dL][dH][dS][dL]G[dA]K(6FAM)-NH2; N-terminus assumed; SMILES CC(C)C[C@@H](NC(=O)[C@@H](CO)NC(=O)[C@@H](Cc1c[nH]cn1)NC(=O)[C@@H](CC(C)C)NC(=O)[C@@H](CCCNC(=N)N)NC(=O)[C@@H](CC(C)C)NC(=O)[C@@H](CC(C)C)NC(=O)[C@H](NC(=O)[C@H]1CCCN1C(=O)[C@@H](C)N)[C@H](C)O)C(=O)NCC(=O)N[C@H](C)C(=O)N[C@@H](CCCCNC(=O)c1ccc2c(c1)C1(OC2=O)c2ccc(O)cc2Oc2cc(O)ccc21)C(N)=O)	+	+	+	worst cell penetration properties	binding could be demonstrated	binding could be demonstrated	–	–	–	–	–	–
D-peptide D-TLKIVW	–	–	–	–	–	–	2 µM	–	–	–	–	–
KNT-Lys(FAM)-NH2: KNT with 6-Carboxyfluorescein (FAM) label linked via a C-terminal lysine ([dK][dN][dT][dP][dQ][dH][dR][dK][dL][dR][dL][dS]K(6FAM)-NH2; N-terminus assumed; SMILES CC(C)C[C@@H](NC(=O)[C@@H](CCCNC(=N)N)NC(=O)[C@@H](CC(C)C)NC(=O)[C@@H](CCCCN)NC(=O)[C@@H](CCCNC(=N)N)NC(=O)[C@@H](Cc1c[nH]cn1)NC(=O)[C@@H](CCC(N)=O)NC(=O)[C@H]1CCCN1C(=O)[C@H](NC(=O)[C@@H](CC(N)=O)NC(=O)[C@H](N)CCCCN)[C@H](C)O)C(=O)N[C@H](CO)C(=O)N[C@@H](CCCCNC(=O)c1ccc2c(c1)C1(OC2=O)c2ccc(O)cc2Oc2cc(O)ccc21)C(N)=O)	+	+	+	–	binding could be demonstrated	binding could be demonstrated	–	+	highest	–	–	–
TD28-Lys(FAM)-NH2: TD28 with 6-Carboxyfluorescein (FAM) label linked via a C-terminal lysine ([dT][dT][dS][dL][dQ][dM][dR][dL][dY][dY][dP][dP]K(6FAM)-NH2; N-terminus assumed; SMILES CSCC[C@@H](NC(=O)[C@@H](CCC(N)=O)NC(=O)[C@@H](CC(C)C)NC(=O)[C@@H](CO)NC(=O)[C@H](NC(=O)[C@H](N)[C@H](C)O)[C@H](C)O)C(=O)N[C@H](CCCNC(=N)N)C(=O)N[C@H](CC(C)C)C(=O)N[C@H](Cc1ccc(O)cc1)C(=O)N[C@H](Cc1ccc(O)cc1)C(=O)N1CCC[C@@H]1C(=O)N1CCC[C@@H]1C(=O)N[C@@H](CCCCNC(=O)c1ccc2c(c1)C1(OC2=O)c2ccc(O)cc2Oc2cc(O)ccc21)C(N)=O)	+	+	+	–	binding could be demonstrated	binding could be demonstrated	–	+	highest	+	–	–
TD28rev-Lys(FAM)-NH2: TD28rev with 6-Carboxyfluorescein (FAM) label linked via a C-terminal lysine ([dP][dP][dY][dY][dL][dR][dM][dQ][dL][dS][dT][dT]K(6FAM)-NH2; N-terminus assumed; SMILES CSCC[C@@H](NC(=O)[C@@H](CCCNC(=N)N)NC(=O)[C@@H](CC(C)C)NC(=O)[C@@H](Cc1ccc(O)cc1)NC(=O)[C@@H](Cc1ccc(O)cc1)NC(=O)[C@H]1CCCN1C(=O)[C@H]1CCCN1)C(=O)N[C@H](CCC(N)=O)C(=O)N[C@H](CC(C)C)C(=O)N[C@H](CO)C(=O)N[C@@H](C(=O)N[C@@H](C(=O)N[C@@H](CCCCNC(=O)c1ccc2c(c1)C1(OC2=O)c2ccc(O)cc2Oc2cc(O)ccc21)C(N)=O)[C@H](C)O)[C@H](C)O)	+	+	+	–	binding could be demonstrated	binding could be demonstrated	–	+	–	+	+	–
TTSLQMRLYYPP [TL28]	–	–	–	–	–	–	–	–	–	–	–	> 200 µM
